In article doi:10.1101/2022.10.21.513149, “Time-resolved cryo-EM using a combination of droplet microfluidics with on-demand jetting” (bioRxiv, 2022):

How the values were obtained:
GroEL = target: T1, GroEL (Escherichia coli MG1655, UniProt P0A6F5 1-548); assay: cryo-EM structure; steady state continuous turnover reference, conventional plunger at around 20 s after the start of the reaction; GroEL (3.7 mg/ml) mixed with GroES (0.7 mg/ml), ATP (2 mM), CHAPS (0.1 %); 22 °C; fractions of complexes from 3D classification of particles; conditions: both partners purified
T1 construct: GroEL of Escherichia coli MG1655; synthetic construct based on the GroEL gene, in a pET-15b vector; also called GroEL-ATP; GroEL-(ADP); source: E. coli BL21, purified (ammonium sulfate cuts, Source Q15 anion exchange, Superose gel filtration); copies: 14

[1] = target: the molecule itself; assay: as above

T1 sequence (P0A6F5 whole entry): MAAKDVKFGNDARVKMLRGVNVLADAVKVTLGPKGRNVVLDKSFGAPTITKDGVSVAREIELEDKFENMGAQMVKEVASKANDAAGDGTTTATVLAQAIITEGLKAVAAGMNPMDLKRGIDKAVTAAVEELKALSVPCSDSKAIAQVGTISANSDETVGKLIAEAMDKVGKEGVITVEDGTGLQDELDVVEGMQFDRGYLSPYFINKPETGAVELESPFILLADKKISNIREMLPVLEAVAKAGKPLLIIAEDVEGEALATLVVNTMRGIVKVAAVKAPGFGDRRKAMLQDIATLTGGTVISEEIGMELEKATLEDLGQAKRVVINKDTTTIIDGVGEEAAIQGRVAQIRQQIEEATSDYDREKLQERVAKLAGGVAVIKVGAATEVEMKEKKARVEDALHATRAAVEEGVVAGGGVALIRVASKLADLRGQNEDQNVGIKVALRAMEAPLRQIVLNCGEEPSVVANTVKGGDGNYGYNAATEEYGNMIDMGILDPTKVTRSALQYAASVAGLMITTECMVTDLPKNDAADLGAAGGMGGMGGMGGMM

B1: GroES (natural protein, Escherichia coli MG1655, UniProt P0A6F9 1-97, looked up)
chain: MNIRPLHDRVIVKRKEVETKSAGGIVLTGSAAAKSTRGEVLAVGNGRILENGEVKPLDVKVGDIVIFNDGYGVKSEKIDNEEVLIMSESDILAIVEA
notes: GroES of Escherichia coli MG1655; synthetic construct based on the GroES gene, in a pET-15b vector; source: E. coli BL21, purified (Source Q15 anion exchange, Superdex 200 gel filtration)
stoichiometry N (GroEL): 2 | binding result [1]: binds
